Measured values reported in patent US20220372155A1 (LYVGEN BIOPHARMA, published 2022).

Assays:
[1] = biological target: T1, human PD-L1 expressed on CHO cells (human, UniProt Q9NZQ7 19-290); test: FACS, CHO cells
T1 construct: whole, on cells; also used for human PD-L1 on Raji cells in the reporter assay; also called cell surface PD-L1; Raji-PD-L1 cells

[2] = biological target: T2, human CD40 expressed on CHO cells (human, UniProt P25942 21-277); test: FACS, CHO cells
T2 construct: whole, on cells; also used for the reporter cells over-expressing human CD40; also called cellular CD40; CHO-CD40 cells

[3] = biological target: T3, Human PD-L1 ECD protein (mouse IgG2a Fc tag) (human, UniProt Q9NZQ7 19-238); test: bridging ELISA, coated CD40 ECD-His, soluble PD-L1 ECD-mFc
T3 construct: extracellular domain; also called recombinant human PD-L1; not shown: mouse IgG2a Fc tag
Protocol: (§1) Exemplary anti-PD-L1/CD40 bi-specific antibodies were analyzed by ELISA for their simultaneous binding to recombinant human PD-L1 and human CD40. Briefly, Ly090 (human CD40 ECD protein with His tag) was diluted and coated onto an ELISA plate with a volume of 100 μL/well by incubation at 4° C. overnight. The next day, the plate was blocked by PBST-BSA buffer, then serially diluted samples of anti-PD-L1/CD40 bi-specific antibodies were pipetted into appropriate wells at 50 μL/well, and the plate was incubated for 1 h followed by Washing. Human PD-L1 ECD protein (mouse IgG2a Fc tag) was added into the plate at 50 μL/well. After 1-hour incubation at room temperature, HRP-conjugated anti-Mouse IgG, Fc G2a antibody was added into the plate at 100 μL/well. The plate was incubated for 1 hour at room temperature followed by washing. TMB substrate solution was added at 100 μL/well and the color development was stopped by adding 100 uL/well Stop Solution (2N H₂SO₄). Absorbance at 450 nm and 620 nm was read by Tecan F200 Pro plate reader. GraphPad 7.0, “[Agonist] vs. response—Variable slope (four parameters)” was used to plot the binding data and calculate binding EC50 values.

[4] = biological target: T4, Ly090 (human CD40 ECD protein with His tag) (human, UniProt P25942 21-193); test: as above
T4 construct: extracellular domain; also called human CD40 ECD protein (His tag); recombinant human CD40; not shown: His tag
Protocol: as §1

Measured: binding result

T2 sequence (P25942 21-277): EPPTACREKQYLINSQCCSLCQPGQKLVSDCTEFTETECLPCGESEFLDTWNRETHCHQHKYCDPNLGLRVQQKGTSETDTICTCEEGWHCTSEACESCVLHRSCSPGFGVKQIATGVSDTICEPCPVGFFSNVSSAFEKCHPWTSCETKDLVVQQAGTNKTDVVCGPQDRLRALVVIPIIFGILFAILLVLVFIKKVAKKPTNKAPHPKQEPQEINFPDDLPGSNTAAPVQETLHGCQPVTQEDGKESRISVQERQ
T3 sequence (Q9NZQ7 19-238): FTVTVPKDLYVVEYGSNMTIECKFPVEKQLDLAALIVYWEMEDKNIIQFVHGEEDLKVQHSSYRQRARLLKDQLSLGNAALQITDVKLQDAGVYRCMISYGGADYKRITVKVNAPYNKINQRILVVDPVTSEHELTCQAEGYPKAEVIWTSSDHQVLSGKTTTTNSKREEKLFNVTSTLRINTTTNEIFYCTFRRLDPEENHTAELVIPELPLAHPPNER
T1 sequence (Q9NZQ7 19-290): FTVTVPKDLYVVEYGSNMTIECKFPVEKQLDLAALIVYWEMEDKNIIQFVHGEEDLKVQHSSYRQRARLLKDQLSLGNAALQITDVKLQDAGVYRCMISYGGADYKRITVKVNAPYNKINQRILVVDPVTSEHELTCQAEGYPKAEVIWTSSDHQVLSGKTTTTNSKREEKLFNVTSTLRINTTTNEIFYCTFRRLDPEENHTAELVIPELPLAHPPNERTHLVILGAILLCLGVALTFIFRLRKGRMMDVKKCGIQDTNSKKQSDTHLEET
T4 sequence (P25942 21-193): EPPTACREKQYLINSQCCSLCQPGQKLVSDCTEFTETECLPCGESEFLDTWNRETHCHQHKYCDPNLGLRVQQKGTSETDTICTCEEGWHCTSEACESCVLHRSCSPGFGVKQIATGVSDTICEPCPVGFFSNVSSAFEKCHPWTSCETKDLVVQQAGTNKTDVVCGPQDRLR

B1: Ly349 (bispecific antibody, human IgG1, kappa)
heavy: QVQLVQSGAEVKKPGASVKVSCKASGYTFTDFWMSWVRQAPGQGLEWMGQIYPNTGTTHSNEKFKGRVTMTRDTSTSTVYMELSSLRSEDTAVYYCARSYHISTTPNWFAYWGQGTLVTVSSASTKGPSVFPLAPSSKSTSGGTAALGCLVKDYFPEPVTVSWNSGALTSGVHTFPAVLQSSGLYSLSSVVTVPSSSLGTQTYICNVNHKPSNTKVDKKVEPKSCDKTHTCPPCPAPELLGPSVFLFPPKPKDTLMISRTPEVTCVVVDVSHEDPEVKFNWYVDGVEVHNAKTKPREEQYNSTYRVVSVLTVLHQDWLNGKEYKCKVSNKALPAPIEKTISKAKGQPREPQVYTLPPSREEMTKNQVSLTCLVKGFYPSDIAVEWESNGQPENNYKTTPPVLDSDGSFFLYSKLTVDKSRWQQGNVFSCSVMHEALHNHYTQKSLSLSPG
light: DIQMTQSPSSLSASVGDRVTITCKASQNVYKKLEWYQQKPGKVPKVLIYHTNILQTGVPSRFSGSGSGTDYTLTISSLQPEDVATYYCYQWNSGPTFGGGTKVEIKRTVAAPSVFIFPPSDEQLKSGTASVVCLLNNFYPREAKVQWKVDNALQSGNSQESVTEQDSKDSTYSLSSTLTLSKADYEKHKVYACEVTHQGLSSPVTKSFNRGECGGGGSGGGGSGGGGSGGGGSDIQMTQSPSSLSASVGDRVTITCKASQNIYIYLNWYQQKPGKAPKLLIYNTNNLQTGVPSRFSGSGSGTDFTLTISSLQPEDFATYYCLQHSSRRTFGGGTKVEIKGGGGSGGGGSGGGGSGGGGSQVQLVESGGGLVQPGGSLKLSCATSGFNFNDYFMNWVRQASGKGLEWVGQIRNKNYNYATYYTESLEGRVTISRDDSKNTAYLQMNSLKTEDTAVYYCTSYYYDGFADYFDYWGQGTTVTVSS
notes: Ly076 HC (IgG1 mutated Fc) + Ly076 LC-TM740 scFv VL-VH
binds: [1] | [2] | [3] | [4]

B2: Ly339 (bispecific antibody, human IgG1, kappa)
heavy: B1 heavy
light: DIQMTQSPSSLSASVGDRVTITCKASQNVYKKLEWYQQKPGKVPKVLIYHTNILQTGVPSRFSGSGSGTDYTLTISSLQPEDVATYYCYQWNSGPTFGGGTKVEIKRTVAAPSVFIFPPSDEQLKSGTASVVCLLNNFYPREAKVQWKVDNALQSGNSQESVTEQDSKDSTYSLSSTLTLSKADYEKHKVYACEVTHQGLSSPVTKSFNRGECGGGGSGGGGSGGGGSGGGGSQVQLVESGGGLVQPGGSLKLSCATSGFNFNDYFMNWVRQASGKGLEWVGQIRNKNYNYATYYTESLEGRVTISRDDSKNTAYLQMNSLKTEDTAVYYCTSYYYDGFADYFDYWGQGTTVTVSSGGGGSGGGGSGGGGSGGGGSDIQMTQSPSSLSASVGDRVTITCKASQNIYIYLNWYQQKPGKAPKLLIYNTNNLQTGVPSRFSGSGSGTDFTLTISSLQPEDFATYYCLQHSSRRTFGGGTKVEIK
notes: Ly076 HC (IgG1 mutated Fc) + Ly076 LC-TM740 scFv VH-VL
binds: [1] | [2] | [3] | [4]

B3: Ly301 (bispecific antibody, human IgG1, kappa)
heavy: QVQLVQSGAEVKKPGASVKVSCKASGYTFTDFWMSWVRQAPGQGLEWMGQIYPNTGTTHSNEKFKGRVTMTRDTSTSTVYMELSSLRSEDTAVYYCARSYHISTTPNWFAYWGQGTLVTVSSASTKGPSVFPLAPSSKSTSGGTAALGCLVKDYFPEPVTVSWNSGALTSGVHTFPAVLQSSGLYSLSSVVTVPSSSLGTQTYICNVNHKPSNTKVDKKVEPKSCDKTHTCPPCPAPELLGPSVFLFPPKPKDTLMISRTPEVTCVVVDVSHEDPEVKFNWYVDGVEVHNAKTKPREEQYNSTYRVVSVLTVLHQDWLNGKEYKCKVSNKALPAPIEKTISKAKGQPREPQVYTLPPSREEMTKNQVSLTCLVKGFYPSDIAVEWESNGQPENNYKTTPPVLDSDGSFFLYSKLTVDKSRWQQGNVFSCSVMHEALHNHYTQKSLSLSPGGGGGSGGGGSGGGGSGGGGSDIQMTQSPSSLSASVGDRVTITCKASQNIYIYLNWYQQKPGKAPKLLIYNTNNLQTGVPSRFSGSGSGTDFTLTISSLQPEDFATYYCLQHSSRRTFGGGTKVEIKGGGGSGGGGSGGGGSGGGGSQVQLVESGGGLVQPGGSLKLSCATSGFNFNDYFMNWVRQASGKGLEWVGQIRNKNYNYATYYTESLEGRVTISRDDSKNTAYLQMNSLKTEDTAVYYCTSYYYDGFADYFDYWGQGTTVTVSS
light: DIQMTQSPSSLSASVGDRVTITCKASQNVYKKLEWYQQKPGKVPKVLIYHTNILQTGVPSRFSGSGSGTDYTLTISSLQPEDVATYYCYQWNSGPTFGGGTKVEIKRTVAAPSVFIFPPSDEQLKSGTASVVCLLNNFYPREAKVQWKVDNALQSGNSQESVTEQDSKDSTYSLSSTLTLSKADYEKHKVYACEVTHQGLSSPVTKSFNRGEC
notes: Ly076 HC (IgG1 mutated Fc)-TM740 scFv VL-VH + Ly076 LC
binds: [1] | [2] | [3] | [4]

B4: Ly303 (bispecific antibody, human IgG1, kappa)
heavy: QVQLVQSGAEVKKPGASVKVSCKASGYTFTDFWMSWVRQAPGQGLEWMGQIYPNTGTTHSNEKFKGRVTMTRDTSTSTVYMELSSLRSEDTAVYYCARSYHISTTPNWFAYWGQGTLVTVSSASTKGPSVFPLAPSSKSTSGGTAALGCLVKDYFPEPVTVSWNSGALTSGVHTFPAVLQSSGLYSLSSVVTVPSSSLGTQTYICNVNHKPSNTKVDKKVEPKSCDKTHTCPPCPAPELLGPSVFLFPPKPKDTLMISRTPEVTCVVVDVSHEDPEVKFNWYVDGVEVHNAKTKPREEQYNSTYRVVSVLTVLHQDWLNGKEYKCKVSNKALPAPIEKTISKAKGQPREPQVYTLPPSREEMTKNQVSLTCLVKGFYPSDIAVEWESNGQPENNYKTTPPVLDSDGSFFLYSKLTVDKSRWQQGNVFSCSVMHEALHNHYTQKSLSLSPGGGGGSGGGGSGGGGSGGGGSDIQMTQSPSSLSASVGDRVTITCLASEDISNDLAWYQQKPGKAPKLLIYFVDRLLDGVPSRFSGSGSGTDFTLTISSLQPEDFATYYCQQSYKYPPTFGQGTKLEIKGGGGSGGGGSGGGGSGGGGSEVQLVESGGGLVQPGGSLRLSCAASGFTFTNYGLHWVRQAPGKGLEWVSSISPSGGVTYYRDSVKGRFTISRDNSKNTLYLQMNSLRAEDTAVYYCAKPFLGWGGANWIAHWGQGTLVTVSS
light: B3 light
notes: Ly076 HC (IgG1 mutated Fc)-TM559 scFv VL-VH + Ly076 LC
binds: [1] | [2] | [3] | [4]

B5: Ly338 (bispecific antibody, human IgG1, kappa)
heavy: QVQLVQSGAEVKKPGASVKVSCKASGYTFTDFWMSWVRQAPGQGLEWMGQIYPNTGTTHSNEKFKGRVTMTRDTSTSTVYMELSSLRSEDTAVYYCARSYHISTTPNWFAYWGQGTLVTVSSASTKGPSVFPLAPSSKSTSGGTAALGCLVKDYFPEPVTVSWNSGALTSGVHTFPAVLQSSGLYSLSSVVTVPSSSLGTQTYICNVNHKPSNTKVDKKVEPKSCDKTHTCPPCPAPELLGPSVFLFPPKPKDTLMISRTPEVTCVVVDVSHEDPEVKFNWYVDGVEVHNAKTKPREEQYNSTYRVVSVLTVLHQDWLNGKEYKCKVSNKALPAPIEKTISKAKGQPREPQVYTLPPSREEMTKNQVSLTCLVKGFYPSDIAVEWESNGQPENNYKTTPPVLDSDGSFFLYSKLTVDKSRWQQGNVFSCSVMHEALHNHYTQKSLSLSPGGGGGSGGGGSGGGGSGGGGSQVQLVESGGGLVQPGGSLKLSCATSGFNFNDYFMNWVRQASGKGLEWVGQIRNKNYNYATYYTESLEGRVTISRDDSKNTAYLQMNSLKTEDTAVYYCTSYYYDGFADYFDYWGQGTTVTVSSGGGGSGGGGSGGGGSGGGGSDIQMTQSPSSLSASVGDRVTITCKASQNIYIYLNWYQQKPGKAPKLLIYNTNNLQTGVPSRFSGSGSGTDFTLTISSLQPEDFATYYCLQHSSRRTFGGGTKVEIK
light: B3 light
notes: Ly076 HC (IgG1 mutated Fc)-TM740 scFv VH-VL + Ly076 LC
binds: [1] | [2] | [3] | [4]
